Test results: paper PMC3317499, “Structural Insights into TIR Domain Specificity of the Bridging Adaptor Mal in TLR4 Signaling” (PLoS ONE, 2012)
Where a chain is given by its changes, count along the chain named. In names and notes the source's numbering stands.

T1: GST-TLR4-TIR (TIR domain of human TLR4, residues 670-839, GST fusion) (human, UniProt O00206 670-839)
T1 construct: Toll-like receptor 4 (TLR4), human, TIR domain residues 670-839; pGEX-6P-1 is a bacterial vector; source: E. coli (pGEX-6P-1), purified (glutathione Sepharose 4B, desalting)
T1 sequence (looked up): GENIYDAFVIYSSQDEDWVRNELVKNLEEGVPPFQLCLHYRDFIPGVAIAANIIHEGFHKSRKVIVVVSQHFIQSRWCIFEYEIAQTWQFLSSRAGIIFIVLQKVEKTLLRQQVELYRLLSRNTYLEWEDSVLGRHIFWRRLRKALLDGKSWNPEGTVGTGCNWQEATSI

B1: Mal-TIR (residues 79-221 of human Mal), crystallised form (domain or fragment, UniProt P58753 79-221, looked up)
chain: SSRWSKDYDVCVCHSEEDLVAAQDLVSYLEGSTASLRCFLQLRDATPGGAIVSELCQALSSSHCRVLLITPGFLQDPWCKYQMLQALTEAPGAEGCTIPLLSGLSRAAYPPELRFMYYVDGRGPDGGFRQVKEAVMRYLQTLS
notes: MyD88 adaptor-like protein (Mal, TIRAP), human, UniProtKB P58753, residues 79-221; The structure has disulfide bonds C89-C134 and C142-C174 and a DTT linking Cys91 and Cys157; A selenomethionine form was used for phasing; also called wild-type Mal-TIR; TIR domain of the human Mal molecule; source: E. coli BL21 (DE3) codon plus, purified (Ni-NTA, PreScission digestion, anion exchange)
B2: Myc-Mal-TIR wild type (TIR domain of human MyD88 adaptor-like protein, residues 79-221, double-tagged with His6 and Myc) (domain or fragment, UniProt P58753 79-221, looked up)
chain: B1 chain
notes: MyD88 adaptor-like protein (Mal, TIRAP), human, UniProtKB P58753, TIR domain residues 79-221; it replaced the S-tag, thioredoxin and the thrombin-cleavable segment of pET32a; also called wild-type Mal-TIR; TIRAP TIR domain; source: E. coli, purified (Ni-NTA, desalting)
B3: Myc-Mal-TIR S180L (domain or fragment, human, UniProt P58753 79-221, looked up)
chain: B1 chain with S102L
notes: Mal (TIRAP), human, UniProtKB P58753, TIR domain residues 79-221, natural variant S180L; also called Mal S180L; source: E. coli, purified (Ni-NTA, desalting)
B4: Myc-Mal-TIR D96A (domain or fragment, human, UniProt P58753 79-221, looked up)
chain: B1 chain with D18A
notes: Mal (TIRAP), human, UniProtKB P58753, TIR domain residues 79-221; source: E. coli, purified (Ni-NTA, desalting)
B5: Myc-Mal-TIR L165A (domain or fragment, human, UniProt P58753 79-221, looked up)
chain: B1 chain with L87A
notes: as for B4
B6: Myc-Mal-TIR F117A (domain or fragment, human, UniProt P58753 79-221, looked up)
chain: B1 chain with F39A
notes: as for B4
B7: Myc-Mal-TIR D96N (domain or fragment, human, UniProt P58753 79-221, looked up)
chain: B1 chain with D18N
notes: Mal (TIRAP), human, UniProtKB P58753, TIR domain residues 79-221, natural variant D96N; source: E. coli, purified (Ni-NTA, desalting)
B8: Myc-Mal-TIR E108A (domain or fragment, human, UniProt P58753 79-221, looked up)
chain: B1 chain with E30A
notes: as for B4
B9: Myc-Mal-TIR D87A (domain or fragment, human, UniProt P58753 79-221, looked up)
chain: B1 chain with D9A
notes: as for B4
B10: Myc-Mal-TIR R192A (domain or fragment, human, UniProt P58753 79-221, looked up)
chain: B1 chain with R114A
notes: as for B4

Target: the molecule itself
Test: crystal structure; Mal-TIR 79-221, space group P4(3)2(1)2, one molecule per asymmetric unit; dimers by crystallographic packing; 100 mM CHES pH 9.5, 150-300 mM NaCl, 10-20% glycerol, 10 mM DTT; 2.4 Å
Conditions: not given

Binder	binding result
B1	binds

Each binder was assayed against T2, GST-MyD88-TIR (TIR domain of human MyD88, residues 148-296, GST fusion) (human, UniProt Q99836 148-296) (assay: pull-down; GST fusion protein and Myc-Mal-TIR mixed with glutathione Sepharose 4B beads, 4°C, 3 hours; washed four times with 20 mM potassium phosphate pH 6.4, 50 mM KCl, 0.1 mM EDTA, 10 mM DTT, 0.5 mM PMSF, 0.5% Triton X-100; SDS-PAGE and anti-Myc immunoblot). Conditions: both partners purified.
T2 construct: Myeloid differentiation factor 88 (MyD88), human, TIR domain residues 148-296; pGEX-6P-1 is a bacterial vector; source: E. coli (pGEX-6P-1), purified (glutathione Sepharose 4B, desalting)
T2 sequence (Q99836 148-296): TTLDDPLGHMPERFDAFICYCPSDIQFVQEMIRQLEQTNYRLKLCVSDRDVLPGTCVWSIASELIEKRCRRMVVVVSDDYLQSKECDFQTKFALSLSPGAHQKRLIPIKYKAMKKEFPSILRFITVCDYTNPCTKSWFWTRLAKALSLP

Binder	binding result
B2	binds
B3	binds
B4	binds
B5	binds
B6	binds
B7	binds
B8	binds

These binders were tested against T1, GST-TLR4-TIR (TIR domain of human TLR4, …) in the same assay as above. Conditions: both partners purified.

Binder	binding result
B2	binds
B3	binds
B4	binds

These binders were tested against T3, GST-Mal-TIR (TIR domain of human Mal, residues 79-221, GST fusion) (human, UniProt P58753 79-221) in the same assay as above. Conditions: both partners purified.
T3 construct: MyD88 adaptor-like protein (Mal, TIRAP), human, UniProtKB P58753, TIR domain residues 79-221; pGEX-6P-1 is a bacterial vector; also called wild type Mal-TIR purified as a GST fusion protein; source: E. coli (pGEX-6P-1), purified (glutathione Sepharose 4B, desalting)

Binder	binding result
B2	binds
B9	binds
B10	binds
